Measurements reported in article PMC11398408 (bioRxiv, 2024).

B1: UBOX-UBL (designed binder)
chain: AEIDYSDAPDEFRDPIMDTLMTDPVRLPSGTVMDRSIILRHLLNSPTDPFNRQTLTESMLEPVPELKEQIQAWMREKQNSDHGGSSGGSSGGSSMWIQVRTMDGRQTHTVDSLSRLTKVEELRRKIQELFHVEPGLQRLFYRGKQMEDGHTLFDYEVRLNDTIQLLVRQS
B2: RING-UBL (designed binder)
chain: SLTAQQSSLIREDKSNAKLWNEVLASLKDRPASGSPFQLFLSKVEETFQCICCQELVFRPITTVCQHNVCKDCLDRSFRAQVFSCPACRYDLGRSYAMQVNQPLQTVLNQLFPGYGNGRGGSSGGSSGGSSGGSSMWIQVRTMDGRQTHTVDSLSRLTKVEELRRKIQELFHVEPGLQRLFYRGKQMEDGHTLFDYEVRLNDTIQLLVRQS

Biological target: UBE2D1 (UniProt P51668 1-147)
Sequence (P51668 whole entry): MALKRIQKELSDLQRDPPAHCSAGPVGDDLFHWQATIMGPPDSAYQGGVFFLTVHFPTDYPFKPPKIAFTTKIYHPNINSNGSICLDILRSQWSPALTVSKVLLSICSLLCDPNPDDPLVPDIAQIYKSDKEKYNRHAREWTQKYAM
Assay: ITC

Binder	stoichiometry N	Kd
B1	~1	–
B2	~1	3.1 ± 0.7 µM
